Among the data in paper doi:10.1101/368936 are fold reduction of binding against wild type and fold tighter binding than RAD9-pS387 values, retold here.

Assay [1] deals with Mdb1-pT113 phosphopeptide (fluorescein-labelled) (S. pombe). Kind of assay: fluorescence polarisation. For orientation: Polarisation of emitted light reports the rotation of a fluorescent probe.
Assay [2] deals with RHNO1-pT202 phospho-peptide (human). Kind of assay: fluorescence polarisation.

As to Rad4-BRCT1,2 K155E (domain or fragment), the fold reduction of binding against wild type in assay [1] came to 20 fold.

In assay [2], “TOPBP1-BRCT0,1,2 segment (wild type, recombinant) (domain or fragment)” showed a fold tighter binding than RAD9-pS387 of 10 fold.
